What all share (type): in vivo
One assay deals with C. tropicalis ATCC 28775. Put plainly: Passive transfer of mAbs, neutropenic mouse model of disseminated candidiasis by C. tropicalis. The settings on record: for Protection against C. tropicalis / Protection against C. tropicalis (grade word): Table 6, neutropenic BALB/c mice, mAb i.p. 4 h before 1×10^7 C. tropicalis i.v.; for Protection against Candida spp in mouse model: Against C. tropicalis / Protection against Candida spp in mouse model: Against C. tropicalis (grade word): Table 9. From the text:
(§1) Induction of neutropenia. Although C. albicans remains the dominant disease-causing pathogen of this genus, rates of infections caused by non-albicans Candida (NAC) species are increasing. Among these Candida species, only C. albicans is pathogenic in the normal mouse model. To test vaccine and mAbs against non-albicans Candida spp, we have developed neutropenic murine models of disseminated infection by C. glabrata, C. tropicalis, and C. parapsilosis. Before challenge, BLAB/c mice were made neutropenic by intraperitoneal receipt of a 200 mg/kg dose of cyclophosphamide (CY; Sigma-Aldrich) at day −3. The i.p. injection (150 mg/kg) is repeated every 10 days after infection (i.e., at days 10, 20, 30, and 40 post-infection) in order to maintain low neutrophil counts for the entire experimental procedure. […] To evaluate leukocytopenia in these mice, blood samples were collected from tail veins 3 days after each CY or saline injection (n=10 in each group). Total leukocyte and differential cell counts were determined on a hemocytometer and by Wright-Giemsa staining. Body weights of the mice were also measured and compared for 14 days after the first CY or saline injection (n=10 in each group).
(§2) Fungal challenge dose and assessment ofprotection. Although C. albicans remains the dominant disease-causing pathogen of this genus, rates of infections caused by non-albicans Candida (NAC) species are increasing (18). Among these Candida species, only C. albicans is pathogenic in the normal mouse model (19,20). We have developed neutropenic murine models of disseminated infection by C. glabrata, C. tropicalis, and C. parapsilosis. […] In details, mice of different experimental groups (five mice per group) were intravenously infected with 5×10^6 viable C. parapsilosis ATCC MYA-4646 (A), 1×108 C. glabrata ATCC 2001 cells (B) and 1×107 C. tropicalis ATCC 28775 cells (C) in 0.1 ml DPBS. As controls, immunocompetent mice were challenged with the same dose of each Candida strain tested.
(§3) Passive transfer of MAbs by intraperitoneal (i.p.) route. The preventive effect of peptide-specific mAbs listed in Table 3 and Table 4 in naïve mice was examined by passive transfer experiments. Each mAb was appropriately diluted in DPBS to give a 40,000-100,000 ELISA titer against each corresponding specific peptide coated on the plate. For testing, mice received 0.5 ml of each mAb or 1 ml of two mAbs in combination (0.5 ml of each) intraperitoneally. Table 6 and Table 7 have listed all the peptide-specific mAb combinations that have been tested, as well as the protective efficacy of each mAb cocktail as compared to single mAb treatment. The negative control materials tested in mice were single mAb or DPBS. Control mice received 0.5 ml of the DPBS diluents or single mAb treatment. For each condition, 6- to 8-week-old female BALB/c mice (NCI) were given 0.5 ml of test mAb, or 1 ml two mAb cocktails or control materials intraperitoneally, followed 4 h later by 0.1 ml intravenously of defined lethal dose of yeast cells per milliliter of DPBS. Mice were divided into groups with five mice each and three independent experiments were carried out. In some experiments, mice were given the same dose of mAbs or control materials on every other day post-challenge for two weeks, as compared to the protective efficacy of mAb in combinations. All mice were sacrificed on day 50. For animal groups that were challenged non-albicans candida species, determined optimal challenge doses were applied for each candida strain.
(§4) The preventive effect of each universal peptide-specific mAb was examined by passive transfer experiments. Each mAb was appropriately diluted in DPBS (0.2 μg/μl) to give a 100,000 ELISA titer against each universal peptide coated on the plate. For testing, 5 mice of each tested group received 0.5 ml of each mAb intraperitoneally. The negative control materials tested in mice were mAbs absorbed with C. albicans yeast cells (3153A) and DPBS. […]

Another assay deals with C. glabrata ATCC 2001. In words: Passive transfer of mAbs, neutropenic mouse model of disseminated candidiasis by C. glabrata. As to conditions: for Protection against C. glabrata / Protection against C. glabrata (grade word): Table 6, neutropenic BALB/c mice, mAb i.p. 4 h before 1×10^8 C. glabrata i.v.; for Protection against Candida spp in mouse model: Against C. glabrata / Protection against Candida spp in mouse model: Against C. glabrata (grade word): Table 9.
Description: as §1, §2, §3, §4

For assay [1], the system named is C. parapsilosis ATCC MYA-4646. Put plainly: Passive transfer of mAbs, neutropenic mouse model of disseminated candidiasis by C. parapsilosis. As to conditions: Table 6; neutropenic BALB/c mice; mAb i.p. 4 h before 5×10^6 C. parapsilosis i.v.
Description: as §1, §2
Passive transfer of MAbs by intraperitoneal (i.p.) route. The preventive effect of peptide-specific mAbs listed in Table 3 and Table 4 in naïve mice was examined by passive transfer experiments. Each mAb was appropriately diluted in DPBS to give a 40,000-100,000 ELISA titer against each corresponding specific peptide coated on the plate. For testing, mice received 0.5 ml of each mAb or 1 ml of two mAbs in combination (0.5 ml of each) intraperitoneally. Table 6 and Table 7 have listed all the peptide-specific mAb combinations that have been tested, as well as the protective efficacy of each mAb cocktail as compared to single mAb treatment. […] For animal groups that were challenged non-albicans candida species, determined optimal challenge doses were applied for each candida strain. […]

We go through two molecules from patent US11707511B2, “Vaccine compositions and methods of using the same” (The Board of Supervisors of Louisiana State University and …, priority 2017, dated 2023).

B1: 1D4H5: IgG1 mAb of hybridoma 1D4H5, specific for GPV-M1; VH SEQ ID NO: 64, VL SEQ ID NO: 66 (antibody, V domains shown)
VH: MYLGLNCVFIVFLLKGVQSEVKLEESGGGLVQPGGSMKLSCVASGFTFSNYWMNWVRQSPEKGLEWVAEIRLKSNNYATHYAESVKGRFTISSDDSKSSVYLQMNNLRAEDTGIYYCSTGNYWGQGTTLTVSS
VL: MDFQMQIISLLLISVTVIVSNGEIVLTQSPTTMAASPGEKITITCSASSTISSNYLHWYQQKPGFSPKLLIYRTSNLASGVPARFSGSGSGTSYSLTIGTMEAEDVATYYCQQGSTISRTFGSGTKLEIK
On to B1, for which, in the assay with C. tropicalis ATCC 28775, the “Protection against C. tropicalis” value is listed as “(60-80%)”, the “Protection against C. tropicalis (grade word)” value is given as “High”, the “Protection against Candida spp in mouse model: Against C. tropicalis” value is on record as “(60-80%)” and the “Protection against Candida spp in mouse model: Against C. tropicalis (grade word)” value is “High”. Moreover, in the assay with C. glabrata ATCC 2001, the “Protection against C. glabrata” value is listed as “(70-90%)”, the “Protection against C. glabrata (grade word)” value is recorded as “High”, the “Protection against Candida spp in mouse model: Against C. glabrata” value is listed as “(70-90%)” and the “Protection against Candida spp in mouse model: Against C. glabrata (grade word)” value is on record as “High”. In assay [1], the “Protection against C. parapsilosis” value is “(70-80%)” and the “Protection against C. parapsilosis (grade word)” value is listed as “High”.

B2: 10E7E2: IgG1 mAb of hybridoma 10E7E2, specific for GPV-P3; VH SEQ ID NO: 72, VL SEQ ID NO: 74 (antibody, V domains shown)
VH: QVQLKQSGPGLVQPSQSLSITCTVSGFSLTSYGVHWVRQSPGKGLEWLGVIWSGGTTDYNAAFISRLSISKDNSKSQVFFKMNSLQANDTAIYYCARGGHRGFAYWGQGTLVTVSA
VL: DIVMTQSHKFMSTSVGDRVSITCKASQDVGTAVAWYQQKPGQSPKLLIYWASTRHTGVPDRFTGSGSGTDFTLTISNVQSEDLADYFCQQYSSYPLTFGAGTKLELK
Regarding B2, in the assay on C. tropicalis ATCC 28775, the “Protection against C. tropicalis” value is recorded as “(60-70%)”, the “Protection against C. tropicalis (grade word)” value is on record as “High”, the “Protection against Candida spp in mouse model: Against C. tropicalis” value was “(60-70%)” and the “Protection against Candida spp in mouse model: Against C. tropicalis (grade word)” value is reported as “High”. For the same molecule, in the assay with C. glabrata ATCC 2001, the “Protection against C. glabrata” value is listed as “(60-70%)”, the “Protection against C. glabrata (grade word)” value was “High”, the “Protection against Candida spp in mouse model: Against C. glabrata” value was “(60-70%)” and the “Protection against Candida spp in mouse model: Against C. glabrata (grade word)” value is given as “High”. For the same molecule, in assay [1], the “Protection against C. parapsilosis” value is “(60-80%)” and the “Protection against C. parapsilosis (grade word)” value is “High”.
